The labels stand for the following.
B1: Avr 5'C biotin hairpin (dsDNA)
DNA: ATCTTAGCACCTGGTTGGAGGGGGTTTATGGGGTTTTCCCCATAAACCCCCTCCAACCAGGTGCTAAGAT
B2: Avr 5'G biotin hairpin (dsDNA)
DNA: ATCTTAGCACCTGGTTGGAGGGGGTTTATCGGGTTTTCCCGATAAACCCCCTCCAACCAGGTGCTAAGAT
B3: Avr 5'A biotin hairpin (dsDNA)
DNA: ATCTTAGCACCTGGTTGGAGGGGGTTTATTGGGTTTTCCCAATAAACCCCCTCCAACCAGGTGCTAAGAT

This series concerns the target MBP-TALE AvrXa7 NT-βN (synthetic, [XXX]=Y-H). Briefly: p228, FIG 26. The note with it: tags: MBP; label: 5'-biotin; hairpin.
As to B1, the binding result was “binds”.

For B2, the binding result is “binds”. Take B3: the binding result is recorded as “binds”.

For the origin of these results see patent publication US20230304022, “CHIMERIC POLYPEPTIDES HAVING TARGETED BINDING SPECIFICITY” (The Scripps Research Institute, published 2023).
